Test results reported in patent US20260022364A1, “ERT2 MUTANTS, INDUCIBLE CELL DEATH SYSTEMS, AND USES THEREOF” (Senti Biosciences, Inc., priority 2023, published 2026).

Key:
[1] = tested on: dimerization of two modified ER-LBDs; test: Transcriptional reporter assay for dimerization activity; type: cell-based; settings: data not shown
[2] = tested on: NK cells; test: Validation of ERT2 mutants with mCherry reporter in NK cells; type: cell-based; settings: primary NK cells
Procedure: After 10 days of feeder cell activation, NK cells were co-transduced with ERT2 mutant virus and reporter SB01066 virus (Experimental Set-up 1). On Day 2 after transduction, transduced NK cells were treated with endoxifen or 4-OHT at a range of concentrations of 0 nM, 0.01 nM, 0.1 nM, 1 nM, and 10 nM. On Day 4, cells were checked for mCherry expression by flow cytometry.

B1: SB06136: ZF10-1_p65_ERT2 mutant; L384M/L391V/N413D/M421L/S463P/H524L (protein)
chain: AGDMRAANLWPSPLMIKRSKKNSLALSLTADQMVSALLDAEPPILYSEYDPTRPFSEASMMGLLTNLADRELVHMINWAKRVPGFVDLTLHDQVHLLECAWMEILMIGVVWRSMEHPVKLLFAPNLLLDRDQGKCVEGLVEIFDMLLATSSRFRMMNLQGEEFVCLKSIILLNSGVYTFLPSTLKSLEEKDHIHRVLDKITDTLIHLMAKAGLTLQQQHQRLAQLLLILSHIRHMSNKGMELLYSMKCKNVVPLYDLLLEAADAHRLHAPTSRGGASVEETDQSHLATAGSTSSHSLQKYYITGEAEGFPAT
dimerization of two modified ER-LBDs to 4-OHT [1]: did not directly alter dimerization | 4-OHT concentration at which variant was sensitive (mCherry) [2]: 0.1 nM | endoxifen concentration at which variant was sensitive (mCherry) [2]: 0.1 nM
